Reference: article PMC10653821

Molecular target: H. pylori-bullfrog hybrid ferritin nanoparticle (bullfrog (Rana catesbeiana) | Helicobacter pylori)
Test: SEC

## H. pylori-bullfrog hybrid ferritin nanoparticle
  stoichiometry N: 24
